Assay results: patent publication US20080254027A1 (published 2008)

Molecular target: T1, CD5-His-GST (human, UniProt P06127 25-372)
T1 sequence: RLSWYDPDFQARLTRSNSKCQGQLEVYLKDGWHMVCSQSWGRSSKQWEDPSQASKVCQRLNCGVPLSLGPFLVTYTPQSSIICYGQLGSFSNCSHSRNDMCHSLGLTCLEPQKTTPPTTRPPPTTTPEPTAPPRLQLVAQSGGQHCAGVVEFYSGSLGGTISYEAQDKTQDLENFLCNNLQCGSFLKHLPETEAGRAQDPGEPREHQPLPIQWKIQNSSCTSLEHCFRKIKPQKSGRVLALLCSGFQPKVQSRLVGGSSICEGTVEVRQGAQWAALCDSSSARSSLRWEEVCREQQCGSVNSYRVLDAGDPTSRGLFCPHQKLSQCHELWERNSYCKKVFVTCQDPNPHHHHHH
Test: Biacore

Kd: ~1.5 nM
B1: 5D7_H0L0_IgG1_WT (antibody, V domains shown)
VH: QVTLKESGPGILKPSQTLSLTCSFSGFSLSTSGMGVGWIRQPSGKGLEWLAHIWWDDDVYYNPSLKNQLTISKDASRDQVFLKITNLDTADTATYYCVRRRATGTGFDYWGQGTTLTVSS
VL: NIVMTQSHKFMSTSVGDRVSIACKASQDVGTAVAWYQQKPGQSPKLLIYWTSTRHTGVPDRFTGSGSGTDFTLTITNVQSEDLADYFCHQYNSYNTFGSGTRLELKR
